# Test results: patent US6468985B1, “Retinoblastoma protein-interacting zinc finger proteins” (The Burnham Institute, priority 1994, dated 2002)
# T1: Rb from HT1080 cell extract (Homo sapiens, UniProt P06400)
# T1 construct: endogenous in cells; host or cells: HT1080 cells (lysate)
# T1 sequence (P06400 1-928): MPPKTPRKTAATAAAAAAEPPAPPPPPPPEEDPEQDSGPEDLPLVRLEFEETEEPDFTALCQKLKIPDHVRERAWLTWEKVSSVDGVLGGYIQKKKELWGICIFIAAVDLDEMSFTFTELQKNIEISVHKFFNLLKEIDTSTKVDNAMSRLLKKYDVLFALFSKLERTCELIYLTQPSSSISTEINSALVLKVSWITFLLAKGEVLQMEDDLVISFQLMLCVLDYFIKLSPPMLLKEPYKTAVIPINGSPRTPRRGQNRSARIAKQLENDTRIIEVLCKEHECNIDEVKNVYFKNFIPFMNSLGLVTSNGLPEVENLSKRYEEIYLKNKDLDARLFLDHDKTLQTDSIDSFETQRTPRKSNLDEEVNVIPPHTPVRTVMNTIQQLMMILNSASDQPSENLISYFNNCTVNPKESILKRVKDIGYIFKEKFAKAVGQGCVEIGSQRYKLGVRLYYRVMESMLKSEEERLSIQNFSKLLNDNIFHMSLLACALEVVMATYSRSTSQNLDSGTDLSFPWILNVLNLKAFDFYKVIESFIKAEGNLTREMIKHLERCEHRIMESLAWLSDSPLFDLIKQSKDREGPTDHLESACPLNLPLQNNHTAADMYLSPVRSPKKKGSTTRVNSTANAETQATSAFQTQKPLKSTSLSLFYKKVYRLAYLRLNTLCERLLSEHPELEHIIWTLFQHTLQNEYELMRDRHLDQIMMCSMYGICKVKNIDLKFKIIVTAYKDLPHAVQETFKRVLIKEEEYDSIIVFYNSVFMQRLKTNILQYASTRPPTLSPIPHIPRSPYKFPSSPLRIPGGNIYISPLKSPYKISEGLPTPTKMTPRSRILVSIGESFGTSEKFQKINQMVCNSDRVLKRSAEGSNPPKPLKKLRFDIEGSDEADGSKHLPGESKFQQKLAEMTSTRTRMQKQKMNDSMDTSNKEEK
# T2: 56 kD fragment of Rb (Homo sapiens, UniProt P06400)
# T2 construct: p56 Rb: 56 kD fragment of Rb from a.a. position 379-928; made in house
# T2 sequence (P06400 379-928): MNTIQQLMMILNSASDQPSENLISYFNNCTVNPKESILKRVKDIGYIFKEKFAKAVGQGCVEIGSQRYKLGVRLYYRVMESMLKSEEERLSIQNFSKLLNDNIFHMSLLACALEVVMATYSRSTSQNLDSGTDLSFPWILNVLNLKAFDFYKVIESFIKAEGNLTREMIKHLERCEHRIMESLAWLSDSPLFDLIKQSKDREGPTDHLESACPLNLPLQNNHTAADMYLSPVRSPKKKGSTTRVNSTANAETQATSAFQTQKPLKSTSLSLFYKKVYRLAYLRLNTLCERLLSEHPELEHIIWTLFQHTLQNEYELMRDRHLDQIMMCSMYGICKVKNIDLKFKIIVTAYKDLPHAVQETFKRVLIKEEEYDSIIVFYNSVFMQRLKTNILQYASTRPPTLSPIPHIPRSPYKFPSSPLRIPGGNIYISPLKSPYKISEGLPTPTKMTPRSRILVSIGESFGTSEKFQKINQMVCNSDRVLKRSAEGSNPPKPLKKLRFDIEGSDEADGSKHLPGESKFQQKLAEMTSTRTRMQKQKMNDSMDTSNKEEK
# Columns and labels:
# [1] = tested on: SK-MEL-23 melanoma cell line; experiment: RIZ D283 allele transcript expression after demethylating agent; format: cell-based, human; details: 3 uM, cultured 3 to 6 days
# Description: RNA samples from the 20 heterozygous melanoma cell lines were sequenced to determine if both alleles were transcribed in the cell or if only one allele was transcribed (ie. monoallelic expression). Sequencing was performed on DNA products produced by reverse transcription-PCR (RT-PCR) amplification using specific RIZ primers. RT-PCR amplification was performed according to the manufacturer's instructions (GeneAmp RNA PCR kit; Perkin Elmer). A 640 bp fragment encoding RIZ exons 5-7 was obtained from transcription of 1 μg of total RNA using the SSO 82 primer (SEQ ID NO: 93) and PCR amplification using the SSO 24 primer (5′[…]3′; SEQ ID NO: 106) and the SSO 82 primer (SEQ ID NO: 93). The amplified fragment was gel purified and sequenced using primer SSO 82 and a CircumVent™ Thermal Cycle DNA Sequencing kit (New England Biolabs; Beverly Mass.). The sequencing products were analyzed on a […] sequencing gel.
# The SK-MEL-23 melanoma cell line was cultured for 3 to 6 days with 3 uM of the demethylating agent 5-azacytidine.
# [2] = molecular target: T3, full length RIZ (Rattus norvegicus, UniProt Q63755); experiment: RIZ homo-oligomer formation; format: binding
# T3 construct: made in house; host or cells: in vitro translation (35S label; method not repeated for this protein)
# [3] = molecular target: T1, Rb from HT1080 cell extract; experiment: GST-RIZ (215-462) glutathione-agarose pull-down of Rb from cell extract, anti-Rb immunoblot; format: binding; details: 4 μg GST-RIZ (215-462)
# Description: Rat RIZ was tested for binding to Rb in HT1080 cells (ATCC #ICCL 121). The cells were grown in DMEM supplemented with […]. Cells were lysed in ELB buffer (50 mM HEPES, pH 7.5, 250 mM NaCl, 0.1% NP-40) supplemented with 5 mM EDTA, 50 mM NaF, 1 mM Na orthovanadate, 1 mM of DTT, aprotinin, leupeptin, and PMSF. The lysate was cleared of cell debris by centrifugation at 12,000 rpm for 10 min in a microfuge.
# Binding between 4 μg GST-RIZ (215-462) and Rb from HT1080 cell extract was evaluated by first mixing the two, then binding GST-RIZ and any associated Rb to glutathione-agarose beads. The beads were washed in binding buffer and the bound complexes were eluted by boiling in SDS buffer and analyzed by immunoblotting with anti-Rb antiserum. Immunoblotting was performed by standard techniques (see, for example, Harlow and Lane, supra, 1988).
# [4] = molecular target: T2, 56 kD fragment of Rb; experiment: binding of 35S-labeled RIZ fragments to 56 kD Rb, immunoprecipitation with anti-Rb antiserum
# Description: To characterize the interaction between RIZ and Rb, a ^35S-labeled fragment of rat RIZ from amino acid position 245-883 (RIZ (245-883)) was produced by subcloning the 1.9 kb insert of clone 7.1 into PBKS+ (Stratagene) to yield plasmid pBKS+7.1. […] The larger size obtained by SDS-PAGE is likely due to anomalous mobility of the RIZ fragment on the gel.
# A 56 kD fragment of Rb produced by bacterial expression from p56Rb plasmid, as described previously (Huang et al., supra, 1991), was tested for binding to radiolabeled RIZ (245-883). Binding was detected by immunoprecipitation with an anti-Rb antiserum and Protein A-Sepharosew™ (Huang et al., supra, 1990), which is incorporated herein by reference; and Huang et al., supra, 1991) followed by SDS-PAGE and autoradiography (see Harlow and Lane, supra, 1988). The rabbit anti-Rb antiserum was produced to purified p56Rb using previously described methods (see Harlow and Lane, supra, 1988).
# The amount of binding of RIZ by Rb in the immunoprecipitation reaction was dependent on the concentration of Rb added. Full binding of ^35S-labeled RIZ (245-883) was achieved by 10 nM Rb but not 3.3 nM Rb (not shown). […]
# Binding between labeled RIZ (1-575) and the glycine mutant with 33 nM Rb was evaluated by immunoprecipitation with anti-Rb antiserum followed by SDS-PAGE and autoradiography.
# T3 sequence (Q63755 whole entry): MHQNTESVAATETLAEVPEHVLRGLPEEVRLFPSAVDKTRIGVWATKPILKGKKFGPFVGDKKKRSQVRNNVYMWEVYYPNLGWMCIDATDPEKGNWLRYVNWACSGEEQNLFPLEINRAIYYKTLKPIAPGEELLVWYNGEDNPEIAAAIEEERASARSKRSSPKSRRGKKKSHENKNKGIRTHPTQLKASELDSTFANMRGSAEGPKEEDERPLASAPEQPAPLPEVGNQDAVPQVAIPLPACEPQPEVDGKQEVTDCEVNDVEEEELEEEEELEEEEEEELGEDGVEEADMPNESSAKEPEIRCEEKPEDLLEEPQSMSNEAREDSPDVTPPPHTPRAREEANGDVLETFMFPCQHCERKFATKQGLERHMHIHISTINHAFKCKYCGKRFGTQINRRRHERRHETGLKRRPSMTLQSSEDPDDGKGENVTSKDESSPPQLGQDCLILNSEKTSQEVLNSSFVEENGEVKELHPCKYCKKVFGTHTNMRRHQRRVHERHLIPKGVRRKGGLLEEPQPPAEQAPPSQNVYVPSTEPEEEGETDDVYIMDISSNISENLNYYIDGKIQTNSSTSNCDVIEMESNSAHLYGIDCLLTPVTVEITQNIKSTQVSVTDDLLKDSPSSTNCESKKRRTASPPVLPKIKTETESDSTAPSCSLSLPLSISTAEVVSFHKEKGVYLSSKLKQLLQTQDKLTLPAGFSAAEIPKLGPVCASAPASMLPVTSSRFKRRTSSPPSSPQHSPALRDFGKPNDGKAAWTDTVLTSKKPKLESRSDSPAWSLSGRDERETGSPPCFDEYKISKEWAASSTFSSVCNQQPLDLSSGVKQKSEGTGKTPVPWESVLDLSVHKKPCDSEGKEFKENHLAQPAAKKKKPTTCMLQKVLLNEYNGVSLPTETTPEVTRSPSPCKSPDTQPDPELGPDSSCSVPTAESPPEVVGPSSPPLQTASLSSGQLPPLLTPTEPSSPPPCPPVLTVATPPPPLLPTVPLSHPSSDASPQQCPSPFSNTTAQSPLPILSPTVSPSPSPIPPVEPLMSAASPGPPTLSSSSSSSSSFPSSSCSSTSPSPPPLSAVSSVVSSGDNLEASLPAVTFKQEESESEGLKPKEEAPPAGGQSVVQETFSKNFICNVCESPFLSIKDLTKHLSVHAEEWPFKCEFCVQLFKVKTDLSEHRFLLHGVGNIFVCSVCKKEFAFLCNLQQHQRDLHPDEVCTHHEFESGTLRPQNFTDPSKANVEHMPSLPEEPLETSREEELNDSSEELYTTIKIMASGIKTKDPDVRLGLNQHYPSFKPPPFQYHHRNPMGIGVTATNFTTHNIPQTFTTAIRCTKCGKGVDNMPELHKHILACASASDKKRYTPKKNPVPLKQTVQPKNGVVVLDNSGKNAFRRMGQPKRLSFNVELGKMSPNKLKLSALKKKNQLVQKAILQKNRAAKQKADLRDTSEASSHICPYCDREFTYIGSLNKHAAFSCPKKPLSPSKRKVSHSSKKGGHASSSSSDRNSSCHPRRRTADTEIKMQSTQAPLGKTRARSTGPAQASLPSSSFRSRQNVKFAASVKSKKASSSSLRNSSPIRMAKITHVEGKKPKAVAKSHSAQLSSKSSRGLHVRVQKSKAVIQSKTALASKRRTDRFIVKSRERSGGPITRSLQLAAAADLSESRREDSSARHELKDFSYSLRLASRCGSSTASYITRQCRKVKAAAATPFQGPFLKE
molecule,measurement,setting,value
Nc1ncn([C@@H]2O[C@H](CO)[C@@H](O)[C@H]2O)c(=O)n1 [5-azacytidine],effect on reduced expression of RIZ D283 transcripts,[1],unaffected
"GST-RIZ (215-462): purified rat RIZ (a.a. position 215-462) fused C-terminal to glutathionine S-transferase (protein, left off: a dimerising Fc or GST, purified rat RIZ (a.a. position 215-462) fused C-terminal to glutathionine S-transferase) PLASAPEQPAPLPEVGNQDAVPQVAIPLPACEPQPEVDGKQEVTDCEVNDVEEEELEEEEELEEEEEEELGEDGVEEADMPNESSAKEPEIRCEEKPEDLLEEPQSMSNEAREDSPDVTPPPHTPRAREEANGDVLETFMFPCQHCERKFATKQGLERHMHIHISTINHAFKCKYCGKRFGTQINRRRHERRHETGLKRRPSMTLQSSEDPDDGKGENVTSKDESSPPQLGQDCLILNSEKTSQEVLN",binding to 35S-labeled full length RIZ (homo-oligomer formation),[2],lack of binding
same,binding to Rb from HT1080 cell extract,[3],bound to the fastest migrating forms of Rb
RIZ (1-575): fragment of RIZ from amino acid position 1-575 (protein) MHQNTESVAATETLAEVPEHVLRGLPEEVRLFPSAVDKTRIGVWATKPILKGKKFGPFVGDKKKRSQVRNNVYMWEVYYPNLGWMCIDATDPEKGNWLRYVNWACSGEEQNLFPLEINRAIYYKTLKPIAPGEELLVWYNGEDNPEIAAAIEEERASARSKRSSPKSRRGKKKSHENKNKGIRTHPTQLKASELDSTFANMRGSAEGPKEEDERPLASAPEQPAPLPEVGNQDAVPQVAIPLPACEPQPEVDGKQEVTDCEVNDVEEEELEEEEELEEEEEEELGEDGVEEADMPNESSAKEPEIRCEEKPEDLLEEPQSMSNEAREDSPDVTPPPHTPRAREEANGDVLETFMFPCQHCERKFATKQGLERHMHIHISTINHAFKCKYCGKRFGTQINRRRHERRHETGLKRRPSMTLQSSEDPDDGKGENVTSKDESSPPQLGQDCLILNSEKTSQEVLNSSFVEENGEVKELHPCKYCKKVFGTHTNMRRHQRRVHERHLIPKGVRRKGGLLEEPQPPAEQAPPSQNVYVPSTEPEEEGETDDVYIMDISSNISENLNYYIDGKIQTNSSTS,binding to Rb in vitro (FIG. 4),[4],specifically binds
